Data published in the nanobody polyreactivity screen of Harvey et al. (2022).

Experiment: yeast display, Sf9 membrane polyspecificity reagent, FACS + sequencing; frameworks hold sequencing errors
Procedure, shortened: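 Synthetic nanobody libraries on Saccharomyces cerevisiae BJ5465 were galactose-induced for 36–48 hours, stained 1 hour at 4 °C with 10% biotinylated, detergent-solubilized Sf9 membrane reagent and enriched on streptavidin microbeads. FACS then separated cells into low and high (top ~1%) gates by anti-HA (expression) and streptavidin (reagent binding) fluorescence. Genes were colony-PCR amplified, MiSeq 2 × 250 sequenced and CDR-length filtered. A clone's polyreactivity label is that of its gate of origin.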

Sequence	polyreactivity (PSR sort gate)
QVQLVESGGGLVQAGGSLRLSCAASGRIFNWYAMGWYRQAPGKERELVARISSGDITSYADSVKGRFTISRDNAKNTVYLQMNSLKPEDTAVYYCAARQWFLYDYWGHGTQVTVSS	low polyreactivity
QVQLVESGGGLVQAGGSLRLSCAASGRIFNYNAMGWYRQAPGKERELVAAITSSGDSTNYADSVKGRFTISRDNAKNTVYLQMNSLKPEDTAVYYCNASSPYDYDWGQGTQVTVSS	low polyreactivity
QVQLVESGGGLVQAGGSLRLSCAASGRIFNYNVMGWYRQAPGKERELVASISYSSTRTYYADSVKGRFTISRDTAKNTVYLQMNSLKPEDTAVYYCNADYYFSSYRSTFDYWGQGTQVTVSS	low polyreactivity
QVQLVESGGGLVQAGGSLRLSCAASGRIFNYYAMGWYRQAPGKEREFVAAITRSGGRTYYADSVKGRFTISRDNAKNTVYLQMNSLKPEDPAVYYCAAGRYVWREYYYWGQGTQVTVSS	high polyreactivity
QVQLVESGGGLVQAGGSLRLSCAASGRIFNYYAMGWYRQAPGKERELVAAINSGGSTYADSVKGRFTISRDNAKNTVYLQMNSLKPEDTAVYYCAKDGQLQSVRERPSGYDHWGQGTQVTVSS	low polyreactivity
QVQLVESGGGLVQAGGSLRLSCAASGRIFNYYAMGWYRQAPGKERELVAAISSGGITNYADSVKGRFTISRDNAKNTVYLQMNSLKPEDTAVYYCAADRSNRPYYRQGYDYWGQGTQVTVSS	high polyreactivity
QVQLVESGGGLVQAGGSLRLSCAASGRIFPANDMGWYRQAPGKERELVASIRRGGITYADSVKGRFTISRDNAKNTVYLQMNSLKPEDNAVYYCNADYRGWGYHMDYWGQGTQVTVSS	low polyreactivity
QVQLVESGGGLVQAGGSLRLSCAASGRIFPANVMGWYRQAPGKETELVAAITRGDSTNYADSVKGRFTISRDNAKNTVYLQMTSLKPEDTAVYYCAAYGRYLLWDYDYWGQGTQVTVSS	low polyreactivity
QVQLVESGGGLVQAGGSLRLSCAASGRIFPAYAMGWYRQAPGKERELVAAITGGGSTNYADSVKGRFTISRDNAKNTVYLQMNSLKPEDTAVYYCNAVTGTYGWAPQAREQEDYWGQGTQVTVSS	low polyreactivity
QVQLVESGGGLVQAGGSLRLSCAASGRIFPAYAMGWYRQAPGKEREWVASIRRGGITYADSVKGRFTISRDNAKNTVYLQMNSLKPEDTAVYYCNADYRGWGYHMDYWGQGTQVTVSS	low polyreactivity
QVQLVESGGGLVQAGGSLRLSCAASGRIFPFYAMGWYRKAPGKERELVARITLSGGSTYYADSVKGRFTISRDNAKNTVYLQMNSLKPEDTAVYYCAADRTSWSVLDFDYWGQGTQVTVSS	low polyreactivity
QVQLVESGGGLVQAGGSLRLSCAASGRIFPFYAMGWYRQAPGKERELVAAISRGGSTKYADSVKGRFTISRDNAKNTVYLQMKSLKPEDTAVYYCAAAGYGGSVAAYYYWGQGTQVTVSS	high polyreactivity
QVQLVESGGGLVQAGGSLRLSCAASGRIFPFYAMGWYRQAPGKETELVAVINASGGGTYYADSVKGRFTISRDNAKNTVYLQMNSLKPEDTAVYYCAATYSPFDFYYWGQGTQVTVSS	low polyreactivity
QVQLVESGGGLVQAGGSLRLSCAASGRIFPFYVMGWYRQAPGKERELVASIRGGGSTNYADSVKGRFTISRDNAKNTVYLQMNSLKPEDTAVYYCNAARRYRAPLYDYWGQGTQVTVSS	high polyreactivity
QVQLVESGGGLVQAGGSLRLSCAASGRIFPHYAMGWYRQAPGKERELVAAISSGGRTNYADSVKGRFTISRDNAKNTVYLQMNSLKPEDTAVYYCARRYPGGYYWGQGTQVTVSS	high polyreactivity
QVQLVESGGGLVQAGGSLRLSCAASGRIFPKYAMGWYRQAPGKERELVARISVRGGRTYYADSVKGRFTISRDNAKNTVYLQMNSLKPEDTAVYYCAAYTRPAYDYWGQGTQVTVSS	high polyreactivity
QVQLVESGGGLVQAGGSLRLSCAASGRIFPSNTMGWYRQAPGKERELVADISFGGGSTYYADSVKGRFTISRDNAKNTVYLQMNSLKPEDTAVYYCNADFGFGYVSLLYEYWGQGTQVTVSS	low polyreactivity
QVQLVESGGGLVQAGGSLRLSCAASGRIFPSYAMGWYRPAPGKERELVAAITRGSTTYYADSVKGRFTISRDNAKNTVYLQMNSLKPEDTAVYYCAAEENLAYYFKYYYWGQGTQVTVSS	low polyreactivity
QVQLVESGGGLVQAGGSLRLSCAASGRIFPSYAMGWYRPAPGKERELVAAITWSGGSTYYAHSVKGRFTISRDNAKNTVYLLRNSLKPEDTAVYYCNRVERRGTYDYWGQGTQVSVSS	high polyreactivity
QVQLVESGGGLVQAGGSLRLSCAASGRIFPTNAMGWYRQAPGKERELVASITRSGSTYYADSVKGRFTISRDNAKNTVYLQMNSLKPEDTAVYYCAAYAYIFLDWGGYPYYLYEYDYWGQGTQVTVSS	low polyreactivity
QVQLVESGGGLVQAGGSLRLSCAASGRIFPTYAMGWYRQAPGKERELVASITSGVDTYYADSVKGRFTISRDNAKNTVYLQMNSLKPEDTAVYYCAARFFVWWKYDYWGQGTQVTVSS	low polyreactivity

Sequence	polyreactivity (PSR sort gate)
QVQLVESGGGLVQAGGSLRLSCAASGRIFPWYTMGWYRQAPGKERELVAAITSGGNTDYADSVKGRFTISRDNAKNTVYLQMNSLKPEDTAVYYCAAGGYPGTTYYGYDYWGQGTQVTVSS	low polyreactivity
QVQLVESGGGLVQAGGSLRLSCAASGRIFPWYTMGWYRQAPGKERELVAVISSGGRTHYADSVKGRFTISRDNAKNTVYLQMNSLKPEDTAVYYCAAESRYQRYDYWGQGTQVTVSS	high polyreactivity
QVQLVESGGGLVQAGGSLRLSCAASGRIFPYYAMGWSRQAPGKEREFVAAITKRGGSTSYADSVKGRFTISRDNAKNTVYLQMNSLKPQDTAVYYCNARLYRGQDRYDYWGQGTQVTVSS	low polyreactivity
QVQLVESGGGLVQAGGSLRLSCAASGRIFPYYAMGWYRQAPGKEREFVAAITRRGTSTYYADSVKGRFTISRDNAKNTVYLQMNSLKPEDTAVYYCNKDIISLSRSYGYWGQGTQVTVSS	high polyreactivity
QVQLVESGGGLVQAGGSLRLSCAASGRIFPYYAMGWYRQAPGKERELVAAISQSDGSTYYADSVKGRFTISRDNEKNTVYLQMNSLKPEVTAVYYWAKRQASYTQHRKGRGDYWGQGTQVTVSS	low polyreactivity
QVQLVESGGGLVQAGGSLRLSCAASGRIFPYYAMGWYRQAPGKERELVAAISYSGGRTYYADSVKGRFTISRDNAKNTVYLQMNSLKPEDTAVYYCSAVVYLGYEYDYWGQGTQVTVSS	low polyreactivity
QVQLVESGGGLVQAGGSLRLSCAASGRIFPYYTMGWYRQAPGKERELVATITTGGSTNYADSVKGRFTISRDNAENTVYLQMNSLKPEDTAVYYCNNDGVVVGRFTGPQEYDYWGQGTQVTVSS	low polyreactivity
QVQLVESGGGLVQAGGSLRLSCAASGRIFQANAKGWYRQAPGKERELVAAINSGDSTYYADSVKGRFTISRDNAKNTVYLQMNSLKPEDTAVYYCAADAVFQYYTYYYWGQGTQVTVSS	low polyreactivity
QVQLVESGGGLVQAGGSLRLSCAASGRIFQAYAMGWYRQAPGKERELVAAISRSGGGTYYADSVKGRFTISRDNAKNTVYLQMNCLKPEDTAVYYCNARGSTARGRGYWGQGTQVTVSS	high polyreactivity
QVQLVESGGGLVQAGGSLRLSCAASGRIFQDYAMGWYRQAPGKERELVAAITWSGGRTYYADSVKGRFTISRDNAKNTVYLQMNSLKPEDTAVYYCNRLTQSRLYYGPREYYYWGQGTQVTVSS	high polyreactivity
QVQLVESGGGLVQAGGSLRLSCAASGRIFQDYAMGWYRQPPGKERELVAAISSSGVRTYYADSVKGRFTISRDNAKNTVYVQMNSLKPEDTAVYYCATGYIFRYRQSAYVYWGQGTQVTVSS	high polyreactivity
QVQLVESGGGLVQAGGSLRLSCAASGRIFQGFAMGGYRQAPGKERELVAAISSGGRTYYADSVKGRFTISRDNAKNTVYLQMNSLKPEDTAVYYCAARSPKANGLQRFDYWGQGSQVTVSS	high polyreactivity
QVQLVESGGGLVQAGGSLRLSCAASGRIFQGYAMGWYRQAPGKERELVAAISYRGASTYYADSVKGRFTISRDNAKNTVYLQMNSLKPEDTAVYYCAKVTPTSTRGHDYWGQGTQVTVSS	low polyreactivity
QVQLVESGGGLVQAGGSLRLSCAASGRIFQGYAMGWYRQAPGKERELVARITSGSNTNYADSVKGRFTISRDNAKNTVYLQMNSLKPEDTAVYYCAKEPVGSVRYGRFQQDDYWGQGTQVTVSS	low polyreactivity
QVQLVESGGGLVQAGGSLRLSCAASGRIFQGYAMGWYRQAPGKERELVASIRTGGTTNYADSVKGRFTISRDNAKNTVYLQMTRLKPEDNAVYYCNSGYYSYYGRYYYWGQGTQVTVSS	high polyreactivity
QVQLVESGGGLVQAGGSLRLSCAASGRIFQGYVMGWYRQAPGKERELVAAITTGGSTYYADSVKGRFTISRDNAKNTVYLQMNSLKPEDTAVYYCAAKPTRSRKIYEYWGQGTQVTVSS	low polyreactivity
QVQLVESGGGLVQAGGSLRLSCAASGRIFQGYVMGWYRQAPGKERELVAAITTGGSTYYADSVKGRFTISRDNAKNTVYLQMNSLKPEDTAVYYCYAVVYVSGYNPYIFGYWGQGTQVTVSS	low polyreactivity
QVQLVESGGGLVQAGGSLRLSCAASGRIFQKNAMGWYRQAAGKERELVAAISGSGSTTNYADSVKGRFTISRDNAKNTVYLQMNSLKPEDTAVYYCATGKRGVSGRGYRYVDYDYWGQGTQVTVSS	high polyreactivity
QVQLVESGGGLVQAGGSLRLSCAASGRIFQKYAMGWYRQAPGKERELVAAITTSGGSTYYADSVKGRFTISRDNAKNTVYLQMNSLKPEDTAVYYCAAKSTLSKEGYWGQGTHVTVSS	high polyreactivity
QVQLVESGGGLVQAGGSLRLSCAASGRIFQLYTMGWYRQAPGKERELVAAITSGTSTSYADSVKGRFTISRDNAKNTVYLQMNSLKPEDTAVYYCNKGSVSYSSVFVPYESDYWGQGTQVTVSS	low polyreactivity
